Test results: the supplement of paper PMC7877785
± gives the uncertainty stated by the source.

Assay: self-splicing fitness, log relative to wild type (ln ratio); higher = more splicing; Tetrahymena group I intron in knt gene, E. coli kanamycin selection, DiMSum; sequences stand for … in CUCUCU…GGAGGGAAAAGUUAUCAGGCAUGCACCUGGUAGCUAGUCUUUAAACCAAUAGAUUGCAUCGGUUUAAAAGGCAAGACCGUCAAAUUGCGGGAAAGGGGUCAACAGCCGUUCAGUACCAAGUCUCAGGGGAAACUUUGAGAUGGCCUUGCAAAGGGUAUGGUAAUAAGCUGACGGACAUGGUCCUAACCACGCAGCCAAGUCCUAAGUCAACAGAUCUUCUGUUGAUAUGGAUGCAGUUCACAGACUAAAUGUCGGUCGGGGAAGAUGUAUUCUUCUCAUAAGAUAUAGUCGGACCUCUCCUUAAUGGGAGCUAGCGGAUGAAGUGAUGCAACACUGGAGCCGCUGGGAACUAAUUUGUAUGCGAAAGUAUAUUGAUUAGUUUUGGAGUACUCGUGGUCG
Summary of the method: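 Fitness was computed with DiMSum as the error-weighted combination of replicate fold changes, kanamycin versus none, each normalised to wild type. The library randomised all eight intron nucleotides of the P1ex region, with the intron placed in the knt kanamycin-resistance gene on pET-22b(+) in E. coli BL21(DE3). Six replicate transformations were grown overnight at 37°C or 30°C on LB agar with or without 25 μg/mL kanamycin, plus 100 μg/mL carbenicillin, 50 μM IPTG and 0.2% rhamnose. Pooled colonies were amplicon-sequenced on an Illumina HiSeq 2500.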

| Sequence | self-splicing fitness (ln) (30 °C) | self-splicing fitness (ln) (37 °C) |
| --- | --- | --- |
| UUCGAGCAAUAUUACGCGGG | -3.26 ± 0.43 | -2.07 ± 0.32 |
| GCUCAGCAAUAUUACGUCGC | -1.95 ± 0.17 | -0.137 ± 0.16 |
| CAUCAGCAAUAUUACGUAGG | -0.284 ± 0.05 | 0.412 ± 0.077 |
| CAGAAGCAAUAUUACGCAUG | -3.89 ± 0.21 | -2.44 ± 0.17 |
| GACUAGCAAUAUUACGGGGC | -4.11 ± 0.23 | -1.21 ± 0.13 |
| GGCUAGCAAUAUUACGGUAU | -0.65 ± 0.061 | 0.376 ± 0.084 |
| GUCUAGCAAUAUUACGGCGG | -2.66 ± 0.42 | -2.32 ± 0.4 |
| UCUUAGCAAUAUUACGUAAU | -5 ± 0.45 | -2.58 ± 0.2 |
| AACGAGCAAUAUUACGGGUG | -3.4 ± 0.17 | -2.34 ± 0.2 |
| GUAUAGCAAUAUUACGUGAA | -3.69 ± 0.25 | -1.67 ± 0.17 |
| AGUUAGCAAUAUUACGUCUC | -3.73 ± 0.37 | -2.44 ± 0.36 |
| UUCAAGCAAUAUUACGAUGA | -0.963 ± 0.097 | 0.0199 ± 0.092 |
| CUCGAGCAAUAUUACGUAAC | -1.53 ± 0.28 |  |
| AGCGAGCAAUAUUACGACGA | -1.13 ± 0.22 | -2.2 ± 0.31 |
| CCUAAGCAAUAUUACGCUGA | -2.63 ± 0.21 | -1.96 ± 0.32 |
| GGACAGCAAUAUUACGGAGC | -0.749 ± 0.089 | -0.621 ± 0.09 |
| UGACAGCAAUAUUACGCAGU | -2.63 ± 0.15 | -2.13 ± 0.27 |
| AGACAGCAAUAUUACGACCC | -0.868 ± 0.29 | -0.564 ± 0.3 |
| CGUCAGCAAUAUUACGUCCG | -1.03 ± 0.11 | -0.273 ± 0.14 |
| GGCAAGCAAUAUUACGGGAC | -2.46 ± 0.13 | -0.918 ± 0.1 |
| UUAGAGCAAUAUUACGGUAU | -3.84 ± 0.28 | -1.36 ± 0.19 |

| Sequence | self-splicing fitness (ln) (30 °C) | self-splicing fitness (ln) (37 °C) |
| --- | --- | --- |
| CUGGAGCAAUAUUACGACUU | -3.44 ± 0.38 | -2.38 ± 0.39 |
| GAGUAGCAAUAUUACGCUUU | -3.16 ± 0.32 | -1.39 ± 0.23 |
| UCUUAGCAAUAUUACGUACG | -1.58 ± 0.083 | -0.522 ± 0.088 |
| AAUAAGCAAUAUUACGGUAA | -1.73 ± 0.16 | -1.03 ± 0.11 |
| CCCCAGCAAUAUUACGUAAA | -3.91 ± 0.17 | -2.89 ± 0.26 |
| CGCCAGCAAUAUUACGACCC | -1.84 ± 0.21 | -1.46 ± 0.39 |
| GACUAGCAAUAUUACGGGUG | -1.25 ± 0.078 | -0.949 ± 0.07 |
| ACUGAGCAAUAUUACGAGGC | -3.07 ± 0.23 | -2.59 ± 0.36 |
| AAACAGCAAUAUUACGAGUA | -1.79 ± 0.1 | -1.68 ± 0.11 |
| GGCCAGCAAUAUUACGUGAU | -1.31 ± 0.075 | -0.482 ± 0.097 |
| AGAUAGCAAUAUUACGAGCG | -0.464 ± 0.12 | -1.08 ± 0.15 |
| GAAGAGCAAUAUUACGUAAG | -3.39 ± 0.21 | -1.5 ± 0.16 |
| GUGGAGCAAUAUUACGUGGA | -2.92 ± 0.28 | -3.07 ± 0.36 |
| CACCAGCAAUAUUACGGGAU | -3.34 ± 0.076 | -1.9 ± 0.076 |
| GCCGAGCAAUAUUACGACCC | -2.25 ± 0.34 | -0.208 ± 0.39 |
| CAACAGCAAUAUUACGGCGU | -2.15 ± 0.091 | -0.0717 ± 0.092 |
| UGCGAGCAAUAUUACGGACC | -2.33 ± 0.19 |  |
| UAGGAGCAAUAUUACGUGGC |  | -0.624 ± 0.36 |
| CAACAGCAAUAUUACGGCAC | -2.31 ± 0.13 | -1.61 ± 0.13 |
| CGCGAGCAAUAUUACGCAUC | -3.36 ± 0.38 | -0.312 ± 0.28 |
| CCCGAGCAAUAUUACGCGCA | -3.47 ± 0.34 | -1.28 ± 0.3 |

| Sequence | self-splicing fitness (ln) (30 °C) | self-splicing fitness (ln) (37 °C) |
| --- | --- | --- |
| GGUAAGCAAUAUUACGCCCA | -1.68 ± 0.23 | -1.01 ± 0.27 |
| ACACAGCAAUAUUACGCAAU | -3.32 ± 0.15 | -1.94 ± 0.15 |
| CAUGAGCAAUAUUACGCAGA | -4.53 ± 0.32 | -1.69 ± 0.15 |
| AUCUAGCAAUAUUACGUACG | -2.01 ± 0.23 | -1.04 ± 0.2 |
| GACCAGCAAUAUUACGAACA | -0.472 ± 0.091 | 0.313 ± 0.081 |
| GGUUAGCAAUAUUACGCCAU | -1.39 ± 0.38 |  |
| AACGAGCAAUAUUACGCUUC | -3.1 ± 0.25 | -1.7 ± 0.3 |
| ACGCAGCAAUAUUACGCGGA | -2.95 ± 0.22 | -1.87 ± 0.17 |
| UCGAAGCAAUAUUACGGUUU | -3.83 ± 0.21 | -2.72 ± 0.29 |
| GUGGAGCAAUAUUACGGUAC | -2.81 ± 0.14 | -1.71 ± 0.15 |
| UCAGAGCAAUAUUACGUCUC | -2.81 ± 0.34 |  |
| ACCGAGCAAUAUUACGUGUU | -3.76 ± 0.19 | -2.65 ± 0.24 |
| AGCUAGCAAUAUUACGUAAU | -3.29 ± 0.16 | -0.924 ± 0.11 |
| CGUUAGCAAUAUUACGAAGG | -1.69 ± 0.1 | -0.895 ± 0.11 |
| CACCAGCAAUAUUACGAGGC | -2.98 ± 0.17 | -2.46 ± 0.19 |
| UGCAAGCAAUAUUACGAAUA | -1.88 ± 0.12 | -1.04 ± 0.13 |
| ACUAAGCAAUAUUACGUGAG | -0.615 ± 0.057 | -0.636 ± 0.076 |
| GCACAGCAAUAUUACGCUAC | -3.81 ± 0.37 | -2.29 ± 0.25 |
| GGUGAGCAAUAUUACGGCCA | -1 ± 0.26 | -0.395 ± 0.17 |
